From paper PMC8154130 come the findings set out here.

What is called Kd is the concentration at which binding is half-saturated.

Like-named read-outs stand apart in the source and are kept apart here.

Holding throughout (assay): EMSA
In general terms: A gel shift assay detects complexes by their altered migration in electrophoresis.

For series [1], the target named is T1, C-terminal truncated DDX3X (1-582) (Homo sapiens, UniProt O00571).
Series [2] deals with T1, C-terminal truncated DDX3X (1-582). The source holds these as a separate data set.
Series [3] has the same target. The source holds these as a separate data set.
The target is the same in series [4]. This is another data set of the same source.
For series [5] the target is unchanged. This is another data set of the same source.

B1: A:A (dsRNA)
RNA 1: GGCGGCCGCC
RNA 2: GGCGGCCGCC
B1: in series [1], the binding result was “no binding”.

B2: B:B (dsRNA)
RNA 1: UUUUUUUUUUUUUUUUUUUUGGCGGCCGCC
RNA 2: B2 RNA 1
Regarding B2, the Kd is 285 ± 18 nM in series [2] and 114 ± 10 nM in series [3].

B3: D:E (dsRNA)
RNA 1: CUCAACUCAACCCUUCAUCUCAACUCAACCCUUCAU
RNA 2: AUGAAGGGUUGAGUUGAGAUGAAGGGUUGAGUUGAG
B3: the binding result in series [1] is reported as “no binding”. On to UUUUUUUUUUUUUUUUUUUUGGUGGUUGUG (ssRNA) [C], for which the values for the Kd in series [4] and in series [5] were 217 ± 60 nM and 298 ± 31 nM, respectively.
